# Assay results reported in patent publication US20110159569A1 (AJOU UNIVERSITY INDUSTRYACADEMIC COOPERATION FOUND, published 2011).
# Molecular target: the molecule itself
# Assay: size exclusion chromatography (HPLC, TSK G3000SW xL), self-association
# Description: 0.02 ml of 5 to 20 μM protein was injected into a TSK G3000SW xL column (TosoHaas, Japan), and a phosphate buffered solution (50 mM sodium phosphate/150 mM NaCl, pH7.4) flowed at a rate of 0.7 ml/min. In this case, the chromatogram was obtained by measuring absorbance values at 280 nm.
protein,measurement,value
"3D8 VL protein (other, Isolated light chain variable domain of the anti-nucleic acid antibody 3D8, purified as a single domain and immobilized on a CM5 chip for SPR; also called VL chain; VL domain) VL: DLVMSQSPSSLAVSAGEKVTMSCKSSQSLFNSRTRKNYLAWYQQKPGQSPKLLIYWASTRESGVPDRFTGSGSGTDFTLTISSVQAEDLAVYYCKQSYYHMYTFGSGTKLEIK",binding result,no binding (tested: 5 to 20 µM)
"3D8 VH protein (other, Isolated heavy chain variable domain of the anti-nucleic acid antibody 3D8, purified as a single domain; also called VH chain; VH domain) VH: AREVQLQQSGPELVKPGASVKMSCKASGYTFTSYVMHWVKQKPGQGLEWIGYINPYNDGTKYNEKFKGKATLTSDKSSSTAYMELSSLTSEDSAVYYCARGAYKRGYAMDYWGQGTSVTVSS",binding result,no binding (tested: 5 to 20 µM)
